T1: CALRins5 (mutant calreticulin, 5 base pair insertion, Type 2) expressed with MPL on engineered cancer cells (UniProt P27797 18-417)
T1 construct: whole, on cells; On the cell surface in complex with MPL; also called OCI-M2 MPL CALRins5
T1 sequence (looked up): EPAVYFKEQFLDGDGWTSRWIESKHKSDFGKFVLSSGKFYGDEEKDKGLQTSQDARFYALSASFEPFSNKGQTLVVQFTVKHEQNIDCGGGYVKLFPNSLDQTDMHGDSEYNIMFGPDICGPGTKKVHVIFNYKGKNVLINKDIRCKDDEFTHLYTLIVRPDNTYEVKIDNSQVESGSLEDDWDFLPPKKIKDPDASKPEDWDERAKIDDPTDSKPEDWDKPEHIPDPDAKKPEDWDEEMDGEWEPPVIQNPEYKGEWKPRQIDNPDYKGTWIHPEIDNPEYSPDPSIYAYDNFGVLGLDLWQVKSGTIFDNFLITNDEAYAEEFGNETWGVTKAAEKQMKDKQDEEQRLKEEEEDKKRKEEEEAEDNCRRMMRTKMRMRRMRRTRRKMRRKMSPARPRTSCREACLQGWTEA

T2: wild-type calreticulin (CALRwt) expressed with MPL in engineered cancer cells (UniProt P27797 18-417, limits assumed)
T2 construct: whole, on cells; also called OCI-M2 MPL CALRwt
T2 sequence (looked up): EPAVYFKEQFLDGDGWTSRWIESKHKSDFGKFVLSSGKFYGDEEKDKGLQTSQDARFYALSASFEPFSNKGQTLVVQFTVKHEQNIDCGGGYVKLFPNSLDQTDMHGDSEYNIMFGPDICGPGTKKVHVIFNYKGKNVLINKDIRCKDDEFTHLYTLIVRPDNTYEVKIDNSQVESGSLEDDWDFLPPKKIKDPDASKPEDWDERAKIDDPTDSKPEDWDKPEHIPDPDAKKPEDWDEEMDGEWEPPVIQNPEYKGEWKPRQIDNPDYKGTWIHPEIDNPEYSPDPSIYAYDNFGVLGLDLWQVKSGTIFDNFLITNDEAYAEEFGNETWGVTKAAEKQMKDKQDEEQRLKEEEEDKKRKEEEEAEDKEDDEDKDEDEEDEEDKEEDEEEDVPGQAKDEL

B1: C3CRB133 CALRmut x CD3 bispecific antibody (bispecific antibody, human IgG1, kappa, L234A L235A)
scFv: DIQMTQSPSSLSASVGDRVTITCRARQSIGTAIHWYQQKPGCAPKLLIKYASESISGVPSRFSGSGSGTDFTLTISSLQPEDFATYYCQQSGSWPYTFGQGTKLEIKGGGSGGSGGCPPCGGSGGEVQLVESGGGLVKPGGSLRLSCAASGFTFSRYNMNWVRQAPGKGLEWVSSISTSSNYIYYADSVKGRFTFSRDNAKNSLDLQMSGLRAEDTAIYYCTRGWGPFDYWGCGTLVTVSSEPKSSDKTHTCPPCPAPEAAGGPSVFLFPPKPKDTLMISRTPEVTCVVVSVSHEDPEVKFNWYVDGVEVHNAKTKPREEQYNSTYRVVSVLTVLHQDWLNGKEYKCKVSNKALPAPIEKTISKAKGQPREPQVYTLPPSREEMTKNQVSLWCLVKGFYPSDIAVEWESNGQPENNYKTTPPVLDSDGSFFLYSKLTVDKSRWQQGNVFSCSVMHEALHNHYTQKSLSLSPGK
heavy: DIQMTQSPSTLSASVGDRVTITCQASQSLYNNKNLAWYQQKPGCAPKLLIYYASALASGVPSRFSGSGSGTEFTLTISSLQPDDFATYYCQGEFNCNSADCNSFGGGTKVEIKGGGSGGSGGCPPCGGSGGQVQLVQSGAEVKKPGASVKVSCKASGFSLSSYAMSWVRQAPGQGLEWMGVIDSGGTTYYAQKFQGRVTMTRDTSTSTVYMELSSLRSEDTAVYYCARESYAGYDYYGHPIPYGMEPWGCGTLVTVSSGGGGSGGGGSEVQLLESGGGLVQPGGSLRLSCAVSGIDLSNNAISWVRQAPGKGLEYVGVIGNTGDTYYADSAKGRFTISRDSSKTTLYLQMNSLRAEDTAVYFCVRGPPSYSSSVKNIWGQGTLVTVSSASTKGPSVFPLAPSSKSTSGGTAALGCLVKDYFPEPVTVSWNSGALTSGVHTFPAVLQSSGLYSLSSVVTVPSSSLGTQTYICNVNHKPSNTKVDKKVEPKSCDKTHTCPPCPAPEAAGGPSVFLFPPKPKDTLMISRTPEVTCVVVSVSHEDPEVKFNWYVDGVEVHNAKTKPREEQYNSTYRVVSVLTVLHQDWLNGKEYKCKVSNKALPAPIEKTISKAKGQPREPQVYTLPPSREEMTKNQVSLSCAVKGFYPSDIAVEWESNGQPENNYKTTPPVLDSDGSFFLVSKLTVDKSRWQQGNVFSCSVMHEALHNRFTQKSLSLSPGK
light: DIQMTQSPSSVSASVGDRVTITCQSSQSVYNNNWLSWLQQKPGKAPKRLIYDASKLESGVPSRFSGSGSGTDFTLTISSVQPEDAATYYCAGGFTGNVYTFGGGTKVEIKRTVAAPSVFIFPPSDEQLKSGTASVVCLLNNFYPREAKVQWKVDNALQSGNSQESVTEQDSKDSTYSLSSTLTLSKADYEKHKVYACEVTHQGLSSPVTKSFNRGEC
notes: Chain B heavy: CALRB1114 spFv N-terminal of the CALRB421 heavy chain
B2: C3CRB134 CALRmut x CD3 bispecific antibody (bispecific antibody)
scFv: DIQMTQSPSSLSASVGDRVTITCRARQSIGTAIHWYQQKPGCAPKLLIKYASESISGVPSRFSGSGSGTDFTLTISSLQPEDFATYYCQQSGSWPYTFGQGTKLEIKGGGSGGSGGCPPCGGSGGEVQLVESGGGLVKPGGSLRLSCAASGFTFSRYNMNWVRQAPGKGLEWVSSISTSSNYIYYADSVKGRFTFSRDNAKNSLDLQMSGLRAEDTAIYYCTRGWGPFDYWGCGTLVTVSSEPKSSDKTHTCPPCPAPEAAGGPSVFLFPPKPKDTLMISRTPEVTCVVVSVSHEDPEVKFNWYVDGVEVHNAKTKPREEQYNSTYRVVSVLTVLHQDWLNGKEYKCKVSNKALPAPIEKTISKAKGQPREPQVYTLPPSREEMTKNQVSLWCLVKGFYPSDIAVEWESNGQPENNYKTTPPVLDSDGSFFLYSKLTVDKSRWQQGNVFSCSVMHEALHNHYTQKSLSLSPGK
heavy: EVQLLESGGGLVQPGGSLRLSCAVSGIDLSNNAISWVRQAPGKGLEYVGVIGNTGDTYYADSAKGRFTISRDSSKTTLYLQMNSLRAEDTAVYFCVRGPPSYSSSVKNIWGQGTLVTVSSASTKGPSVFPLAPSSKSTSGGTAALGCLVKDYFPEPVTVSWNSGALTSGVHTFPAVLQSSGLYSLSSVVTVPSSSLGTQTYICNVNHKPSNTKVDKKVEPKSCGGGGSGGGGSDIQMTQSPSTLSASVGDRVTITCQASQSLYNNKNLAWYQQKPGCAPKLLIYYASALASGVPSRFSGSGSGTEFTLTISSLQPDDFATYYCQGEFNCNSADCNSFGGGTKVEIKGGGSGGSGGCPPCGGSGGQVQLVQSGAEVKKPGASVKVSCKASGFSLSSYAMSWVRQAPGQGLEWMGVIDSGGTTYYAQKFQGRVTMTRDTSTSTVYMELSSLRSEDTAVYYCARESYAGYDYYGHPIPYGMEPWGCGTLVTVSSEPKSSDKTHTCPPCPAPEAAGGPSVFLFPPKPKDTLMISRTPEVTCVVVSVSHEDPEVKFNWYVDGVEVHNAKTKPREEQYNSTYRVVSVLTVLHQDWLNGKEYKCKVSNKALPAPIEKTISKAKGQPREPQVYTLPPSREEMTKNQVSLSCAVKGFYPSDIAVEWESNGQPENNYKTTPPVLDSDGSFFLVSKLTVDKSRWQQGNVFSCSVMHEALHNRFTQKSLSLSPGK
light: DIQMTQSPSSVSASVGDRVTITCQSSQSVYNNNWLSWLQQKPGKAPKRLIYDASKLESGVPSRFSGSGSGTDFTLTISSVQPEDAATYYCAGGFTGNVYTFGGGTKVEIKRTVAAPSVFIFPPSDEQLKSGTASVVCLLNNFYPREAKVQWKVDNALQSGNSQESVTEQDSKDSTYSLSSTLTLSKADYEKHKVYACEVTHQGLSSPVTKSFNRGEC
notes: Chain B heavy: CALRB421 Fab heavy part, CALRB1114 spFv, Fc
B3: C3CRB137 CALRmut x CD3 bispecific antibody (bispecific antibody, human IgG1, kappa, L234A L235A)
scFv: DIQMTQSPSSLSASVGDRVTITCRARQSIGTAIHWYQQKPGCAPKLLIKYASESISGVPSRFSGSGSGTDFTLTISSLQPEDFATYYCQQSGSWPYTFGQGTKLEIKGGGSGGSGGCPPCGGSGGEVQLVESGGGLVKPGGSLRLSCAASGFTFSRYNMNWVRQAPGKGLEWVSSISTSSNYIYYADSVKGRFTFSRDNAKNSLDLQMSGLRAEDTAIYYCTRGWGPFDYWGCGTLVTVSSEPKSSDKTHTCPPCPAPEAAGGPSVFLFPPKPKDTLMISRTPEVTCVVVSVSHEDPEVKFNWYVDGVEVHNAKTKPREEQYNSTYRVVSVLTVLHQDWLNGKEYKCKVSNKALPAPIEKTISKAKGQPREPQVYTLPPSREEMTKNQVSLWCLVKGFYPSDIAVEWESNGQPENNYKTTPPVLDSDGSFFLYSKLTVDKSRWQQGNVFSCSVMHEALHNHYTQKSLSLSPGK
heavy: EVQLLESGGGLVQPGGSLRLSCAVSGIDLSNNAISWVRQAPGKGLEYVGVIGNTGDTYYADSAKGRFTISRDSSKTTLYLQMNSLRAEDTAVYFCVRGPPSYSSSVKNIWGQGTLVTVSSASTKGPSVFPLAPSSKSTSGGTAALGCLVKDYFPEPVTVSWNSGALTSGVHTFPAVLQSSGLYSLSSVVTVPSSSLGTQTYICNVNHKPSNTKVDKKVEPKSCGGGGSGGGGSEVQLLESGGGLVQPGGSLRLSCAVSGIDLSNNAISWVRQAPGKGLEYVGVIGNTGDTYYADSAKGRFTISRDSSKTTLYLQMNSLRAEDTAVYFCVRGPPSYSSSVKNIWGQGTLVTVSSASTKGPSVFPLAPSSKSTSGGTAALGCLVKDYFPEPVTVSWNSGALTSGVHTFPAVLQSSGLYSLSSVVTVPSSSLGTQTYICNVNHKPSNTKVDKKVEPKSCDKTHTCPPCPAPEAAGGPSVFLFPPKPKDTLMISRTPEVTCVVVSVSHEDPEVKFNWYVDGVEVHNAKTKPREEQYNSTYRVVSVLTVLHQDWLNGKEYKCKVSNKALPAPIEKTISKAKGQPREPQVYTLPPSREEMTKNQVSLSCAVKGFYPSDIAVEWESNGQPENNYKTTPPVLDSDGSFFLVSKLTVDKSRWQQGNVFSCSVMHEALHNRFTQKSLSLSPGK
light: DIQMTQSPSSVSASVGDRVTITCQSSQSVYNNNWLSWLQQKPGKAPKRLIYDASKLESGVPSRFSGSGSGTDFTLTISSVQPEDAATYYCAGGFTGNVYTFGGGTKVEIKRTVAAPSVFIFPPSDEQLKSGTASVVCLLNNFYPREAKVQWKVDNALQSGNSQESVTEQDSKDSTYSLSSTLTLSKADYEKHKVYACEVTHQGLSSPVTKSFNRGEC
notes: Chain B heavy: two CALRB421 Fab heavy parts in tandem, Fc

Key:
[1] = molecular target: T1, CALRins5 (mutant calreticulin, 5 base …); assay: flow cytometry on OCI-M2 MPL CALRins5 cells, 1 h at 37 C, AF647 secondary antibody, Geometric mean
Description: (§1) FIGS. 27A-27F depict binding of different CALRmutxCD3 antibodies to CALRmut-negative or CALRmut-positive cells. Flow cytometry was used to evaluate CALRmutxCD3 binding to CALRmut-negative and CALRmut-positive cancer cells in vitro. CALRmutxCD3 antibodies were tested on a panel of cell lines, engineered to express MPL and CALRmut, after 1 hour 37° C. incubation, with subsequent incubation with secondary AF647-labeled antibody. Geometric mean fluorescence intensity of AF647 was measured to determine antibody binding.

[2] = molecular target: T2, wild-type calreticulin (CALRwt) …; assay: flow cytometry on OCI-M2 MPL CALRwt cells, 1 h at 37 C, AF647 secondary antibody, Geometric mean
Description: as §1

[3] = molecular target: T1, CALRins5 (mutant calreticulin, 5 base …); assay: flow cytometry on ELF-153 MPL CALRins5 cells, 1 h at 37 C, AF647 secondary antibody, Geometric mean
Description: as §1

Row | Binder | EC50 (read off the curve) [1] [nM] | binding result [2] | EC50 (read off the curve) [3] [nM]
1 | B1 | ~5 | no binding (tested: 100 nM) | ~1
2 | B2 | ~3 | no binding (tested: 100 nM) | ~1
3 | B3 |  | no binding (tested: 100 nM) | ~1

Reference: patent US20260125457A1 (Janssen / Centocor, published 2026)
